The results in this text go back to US20210269480A1 (published 2021).

In assay [1] the target is T1, Nectin-4 on MDA-MB-468 cells (human, UniProt Q96NY8 32-510).
T1 construct: whole, on cells; also called PVRL4; PVRL-4
T1 sequence (looked up): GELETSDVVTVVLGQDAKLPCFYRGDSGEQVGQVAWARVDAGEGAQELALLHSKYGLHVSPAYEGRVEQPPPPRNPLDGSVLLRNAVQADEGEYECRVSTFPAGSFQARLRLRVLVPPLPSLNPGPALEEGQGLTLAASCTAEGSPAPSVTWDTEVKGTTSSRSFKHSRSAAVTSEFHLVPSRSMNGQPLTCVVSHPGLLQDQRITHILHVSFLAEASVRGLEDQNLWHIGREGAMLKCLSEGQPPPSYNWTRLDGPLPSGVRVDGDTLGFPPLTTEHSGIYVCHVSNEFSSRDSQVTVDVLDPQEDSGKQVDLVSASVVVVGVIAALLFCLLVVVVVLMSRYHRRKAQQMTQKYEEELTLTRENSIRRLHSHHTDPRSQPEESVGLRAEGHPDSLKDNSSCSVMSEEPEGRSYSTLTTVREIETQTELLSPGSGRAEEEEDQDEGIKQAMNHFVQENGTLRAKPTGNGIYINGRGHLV
The assay can be described thus: HCS assay on MDA-MB-468 cells, bound agent detected with fluorescent antibody to MMAE. As to the method:
HCS assay was used in Nectin-4 BDC binding study. Cells were incubated with test agent and then washed. Detection was by a fluorescent antibody to MMAE.

Assay [2] addresses T1, Nectin-4 on MDA-MB-468 cells. The assay can be described thus: column 'Historical Kd (nM)' of the HCS table; method of the historical value not stated.

*1 amine or outer side, *2 acyl side, *3 side chain or, on linkers, in order; H or OH if unused. Bridges are numbered along the chain shown (N, C = ends). Primed or numbered codes have the meaning given here. Where no end group is shown, it is not given here. [ ]: non-standard residue; d: D form. TATA = O=C(CC[*:1])N1CN(C(=O)CC[*:2])CN(C(=O)CC[*:3])C1; 1Nal = N[C@@H](Cc1cccc2ccccc12)C(=O)O; Glutaryl = O=C(CCCC(=O)[*:2])[*:1]; Hyp = O=C(O)[C@@H]1C[C@@H](O)CN1; hArg = N=C(N)NCCCC[C@H](N)C(=O)O; Cit = NC(=O)NCCC[C@H](N)C(=O)O; MMAE = monomethyl auristatin E; PABC′ = p-aminobenzylcarbamate; βAla = NCCC(=O)O; Sar = CNCC(=O)O

B1: BCY8245 (MMAE-PABC-Cit-Val-Glutaryl-BCY8234) (peptide)
peptide: {MMAE-PABC′-Cit-Val-Glutaryl-βAla}-[Sar][Sar][Sar][Sar][Sar][Sar][Sar][Sar][Sar][Sar]CP[1Nal][dD]CM[hArg]DWSTP[Hyp]WC
modifications: linker 11-15-25 via TATA
notes: also called BT8009
With B1, the Kd came to 3.52 nM in assay [1] and 5.18 nM in assay [2].
